Values quoted from earlier work in patent US20030144198A1, “Coadministration of transport protein with conjugated cobalamin to deliver agents” (priority 2001, published 2003).

B1: HC: haptocorrin, group of cobalamin binding proteins that includes TC-I and TC-III (protein, UniProt P20061 24-433, looked up)
Transcobalamin-1: EICEVSEENYIRLKPLLNTMIQSNYNRGTSAVNVVLSLKLVGIQIQTLMQKMIQQIKYNVKSRLSDVSSGELALIILALGVCRNAEENLIYDYHLIDKLENKFQAEIENMEAHNGTPLTNYYQLSLDVLALCLFNGNYSTAEVVNHFTPENKNYYFGSQFSVDTGAMAVLALTCVKKSLINGQIKADEGSLKNISIYTKSLVEKILSEKKENGLIGNTFSTGEAMQALFVSSDYYNENDWNCQQTLNTVLTEISQGAFSNPNAAAQVLPALMGKTFLDINKDSSCVSASGNFNISADEPITVTPPDSQSYISVNYSVRINETYFTNVTVLNGSVFLSVMEKAQKMNDTIFGFTMEERSWGPYITCIQGLCANNNDRTYWELLSGGEPLSQGAGSYVVRNGENLEVRWSKY
B2: TC-I: transcobalamin I, plasma cobalamin storage protein (protein, UniProt P20061 24-433, looked up)
Transcobalamin-1: B1 Transcobalamin-1

Tests used:
[1] = the D isomer was not hydrolyzed
[2] = target: cubilin (Homo sapiens, UniProt O60494); conditions: at 20° C., single binding site, dependent on calcium
cubilin, sequence (O60494 36-3623, species assumed): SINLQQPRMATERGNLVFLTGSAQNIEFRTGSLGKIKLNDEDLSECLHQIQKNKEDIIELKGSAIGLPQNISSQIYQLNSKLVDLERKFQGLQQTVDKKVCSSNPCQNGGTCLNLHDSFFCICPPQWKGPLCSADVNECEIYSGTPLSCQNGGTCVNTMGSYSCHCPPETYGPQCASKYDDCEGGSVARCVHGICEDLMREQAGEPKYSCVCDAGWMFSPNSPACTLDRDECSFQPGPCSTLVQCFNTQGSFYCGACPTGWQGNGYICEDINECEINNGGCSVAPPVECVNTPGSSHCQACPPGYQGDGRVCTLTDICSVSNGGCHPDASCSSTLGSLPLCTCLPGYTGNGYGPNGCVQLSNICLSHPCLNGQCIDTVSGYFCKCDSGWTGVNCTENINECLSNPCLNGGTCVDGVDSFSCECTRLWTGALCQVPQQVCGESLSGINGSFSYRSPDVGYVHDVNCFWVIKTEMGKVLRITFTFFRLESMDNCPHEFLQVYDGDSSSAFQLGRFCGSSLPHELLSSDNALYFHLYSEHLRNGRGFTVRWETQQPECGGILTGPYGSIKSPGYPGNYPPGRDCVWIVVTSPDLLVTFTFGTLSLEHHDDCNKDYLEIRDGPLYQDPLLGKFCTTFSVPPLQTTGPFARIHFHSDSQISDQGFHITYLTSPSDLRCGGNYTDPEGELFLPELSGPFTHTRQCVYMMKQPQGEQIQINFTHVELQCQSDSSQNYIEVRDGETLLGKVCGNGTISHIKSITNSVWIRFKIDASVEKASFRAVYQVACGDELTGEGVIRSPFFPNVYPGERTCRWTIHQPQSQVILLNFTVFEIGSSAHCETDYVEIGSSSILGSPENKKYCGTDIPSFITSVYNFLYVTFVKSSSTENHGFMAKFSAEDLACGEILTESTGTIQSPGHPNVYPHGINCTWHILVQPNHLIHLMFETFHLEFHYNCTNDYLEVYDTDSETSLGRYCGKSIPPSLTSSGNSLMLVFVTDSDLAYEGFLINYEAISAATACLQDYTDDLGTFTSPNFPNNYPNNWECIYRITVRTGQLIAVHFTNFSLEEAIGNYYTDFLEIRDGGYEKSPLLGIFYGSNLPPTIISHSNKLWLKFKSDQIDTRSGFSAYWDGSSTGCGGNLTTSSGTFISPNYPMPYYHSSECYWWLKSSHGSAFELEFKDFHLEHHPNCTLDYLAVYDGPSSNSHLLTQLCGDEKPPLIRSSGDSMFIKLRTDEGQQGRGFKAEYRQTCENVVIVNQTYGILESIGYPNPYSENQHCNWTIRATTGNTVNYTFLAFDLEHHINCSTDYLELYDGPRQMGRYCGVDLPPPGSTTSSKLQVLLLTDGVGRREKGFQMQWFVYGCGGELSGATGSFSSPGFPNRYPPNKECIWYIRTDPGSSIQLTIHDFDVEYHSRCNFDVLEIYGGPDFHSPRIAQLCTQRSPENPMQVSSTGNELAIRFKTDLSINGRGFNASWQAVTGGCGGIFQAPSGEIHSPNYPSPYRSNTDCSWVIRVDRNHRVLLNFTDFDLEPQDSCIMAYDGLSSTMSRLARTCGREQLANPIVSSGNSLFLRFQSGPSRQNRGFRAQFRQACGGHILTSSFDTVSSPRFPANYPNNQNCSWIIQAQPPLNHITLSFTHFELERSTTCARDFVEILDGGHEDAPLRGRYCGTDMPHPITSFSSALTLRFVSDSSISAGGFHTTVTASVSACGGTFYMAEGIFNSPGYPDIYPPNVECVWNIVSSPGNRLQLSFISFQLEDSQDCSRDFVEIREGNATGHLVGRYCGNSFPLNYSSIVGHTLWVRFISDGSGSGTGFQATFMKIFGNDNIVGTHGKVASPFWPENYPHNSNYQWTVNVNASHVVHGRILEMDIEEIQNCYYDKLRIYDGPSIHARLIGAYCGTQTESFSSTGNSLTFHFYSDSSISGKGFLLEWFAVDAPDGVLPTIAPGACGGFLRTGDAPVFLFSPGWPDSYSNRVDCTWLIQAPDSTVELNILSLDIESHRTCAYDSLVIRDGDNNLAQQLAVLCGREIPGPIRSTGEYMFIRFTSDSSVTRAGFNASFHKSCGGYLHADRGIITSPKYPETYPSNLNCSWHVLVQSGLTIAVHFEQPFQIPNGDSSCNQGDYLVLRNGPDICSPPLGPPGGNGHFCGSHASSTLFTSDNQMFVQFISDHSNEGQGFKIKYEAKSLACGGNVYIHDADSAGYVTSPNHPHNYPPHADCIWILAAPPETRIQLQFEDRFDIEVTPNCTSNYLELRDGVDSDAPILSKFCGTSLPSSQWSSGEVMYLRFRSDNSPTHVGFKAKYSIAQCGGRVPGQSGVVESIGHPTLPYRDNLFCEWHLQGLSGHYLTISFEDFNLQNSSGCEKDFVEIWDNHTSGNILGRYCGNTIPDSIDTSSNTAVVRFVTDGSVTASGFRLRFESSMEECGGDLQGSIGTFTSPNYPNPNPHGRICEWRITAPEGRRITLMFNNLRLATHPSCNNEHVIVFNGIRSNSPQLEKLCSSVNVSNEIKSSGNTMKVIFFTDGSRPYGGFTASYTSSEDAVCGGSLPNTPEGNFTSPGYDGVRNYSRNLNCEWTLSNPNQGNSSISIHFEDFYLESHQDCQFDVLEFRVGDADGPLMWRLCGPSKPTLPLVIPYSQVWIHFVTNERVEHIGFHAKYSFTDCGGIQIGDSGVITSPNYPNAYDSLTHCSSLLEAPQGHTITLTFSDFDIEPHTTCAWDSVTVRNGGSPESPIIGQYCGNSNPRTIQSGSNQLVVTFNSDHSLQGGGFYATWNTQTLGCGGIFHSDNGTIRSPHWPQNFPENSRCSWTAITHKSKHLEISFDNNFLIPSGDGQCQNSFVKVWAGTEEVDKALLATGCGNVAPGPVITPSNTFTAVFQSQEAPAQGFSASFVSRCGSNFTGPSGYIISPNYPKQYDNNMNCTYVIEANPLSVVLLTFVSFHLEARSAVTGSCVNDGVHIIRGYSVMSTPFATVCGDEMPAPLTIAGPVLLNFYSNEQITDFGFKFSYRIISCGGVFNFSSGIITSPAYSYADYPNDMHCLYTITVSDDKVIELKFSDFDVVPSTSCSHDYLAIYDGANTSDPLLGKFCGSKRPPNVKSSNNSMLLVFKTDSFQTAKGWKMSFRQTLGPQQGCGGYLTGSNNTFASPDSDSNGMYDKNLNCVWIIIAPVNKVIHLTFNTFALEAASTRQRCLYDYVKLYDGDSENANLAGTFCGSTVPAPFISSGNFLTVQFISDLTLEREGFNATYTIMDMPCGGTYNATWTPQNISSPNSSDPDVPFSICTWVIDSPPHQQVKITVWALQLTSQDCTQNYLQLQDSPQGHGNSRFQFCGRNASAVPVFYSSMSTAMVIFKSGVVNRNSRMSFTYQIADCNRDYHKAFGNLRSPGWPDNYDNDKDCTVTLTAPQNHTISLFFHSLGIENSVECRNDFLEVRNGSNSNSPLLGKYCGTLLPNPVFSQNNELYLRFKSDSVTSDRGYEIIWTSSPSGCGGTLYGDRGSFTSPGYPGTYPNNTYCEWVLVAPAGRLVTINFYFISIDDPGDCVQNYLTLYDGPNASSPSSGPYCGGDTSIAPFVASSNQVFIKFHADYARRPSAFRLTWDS
cubilin, sequence (P27352 19-417 partner, species assumed): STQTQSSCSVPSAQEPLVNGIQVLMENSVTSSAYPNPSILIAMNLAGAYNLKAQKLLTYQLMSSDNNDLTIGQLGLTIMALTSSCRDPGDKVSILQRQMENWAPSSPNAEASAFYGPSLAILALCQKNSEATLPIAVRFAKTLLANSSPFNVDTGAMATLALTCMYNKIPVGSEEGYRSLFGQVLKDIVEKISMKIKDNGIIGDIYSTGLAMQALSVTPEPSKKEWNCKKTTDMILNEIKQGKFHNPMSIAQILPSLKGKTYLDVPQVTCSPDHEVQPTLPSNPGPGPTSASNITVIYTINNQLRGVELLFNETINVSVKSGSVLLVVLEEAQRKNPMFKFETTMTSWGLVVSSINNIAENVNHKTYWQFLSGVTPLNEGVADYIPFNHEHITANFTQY

[3] = in plasma

Row | Molecule | t1/2 [3] | other results
1 | COc1cccc2c1C(=O)c1c(O)c3c(c(O)c1C2=O)C[C@@](O)(C(C)=O)C[C@@H]3O[C@H]1C[C@H](NC(=O)[C@@H](N)CC(C)C)C(O)[C@H](C)O1 (stereo partly drawn) [N-(L-leucyl) daunorubicin] |  | hydrolysis in vivo [1]: hydrolyzed in vivo to regenerate daunorubicin
2 | IF-B12: complex of intrinsic factor with vitamin B12 |  | Kd [2]: 1 to 5 nM
3 | B1 | 240 h | 
4 | B2 | 240 h | 
